Target: dnm1l_human DNM1L (UniProt O00429)
Sequence (O00429 whole entry): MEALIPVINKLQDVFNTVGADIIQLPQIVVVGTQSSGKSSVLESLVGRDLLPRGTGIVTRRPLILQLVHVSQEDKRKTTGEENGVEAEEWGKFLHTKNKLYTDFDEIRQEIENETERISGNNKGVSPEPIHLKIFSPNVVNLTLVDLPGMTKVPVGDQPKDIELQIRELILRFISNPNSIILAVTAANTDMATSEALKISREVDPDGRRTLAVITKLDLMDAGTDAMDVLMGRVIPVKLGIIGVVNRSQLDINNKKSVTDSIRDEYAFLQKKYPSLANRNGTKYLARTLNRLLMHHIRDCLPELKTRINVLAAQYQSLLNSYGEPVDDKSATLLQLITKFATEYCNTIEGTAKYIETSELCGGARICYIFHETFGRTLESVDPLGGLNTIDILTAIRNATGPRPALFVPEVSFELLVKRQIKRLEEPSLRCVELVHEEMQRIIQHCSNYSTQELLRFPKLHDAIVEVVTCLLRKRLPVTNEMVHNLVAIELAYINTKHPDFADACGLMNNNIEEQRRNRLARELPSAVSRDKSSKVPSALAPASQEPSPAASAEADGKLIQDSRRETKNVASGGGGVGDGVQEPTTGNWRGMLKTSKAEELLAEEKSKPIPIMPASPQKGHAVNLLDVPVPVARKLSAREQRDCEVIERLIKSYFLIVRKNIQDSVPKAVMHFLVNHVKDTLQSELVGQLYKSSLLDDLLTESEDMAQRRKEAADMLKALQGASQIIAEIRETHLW

| effect of a mutation on the interaction | Substance |
| --- | --- |
| decreasing interaction | Leucine-rich repeat serine/threonine-protein kinase 2 (Homo sapiens), Q5S007 D1994A |
| increasing interaction | Leucine-rich repeat serine/threonine-protein kinase 2 (Homo sapiens), Q5S007 G2019S |
| decreasing interaction | Leucine-rich repeat serine/threonine-protein kinase 2 (Homo sapiens), Q5S007 K1347A |
| increasing interaction | Leucine-rich repeat serine/threonine-protein kinase 2 (Homo sapiens), Q5S007 R1441C |
